Series [1] deals with T1, KsdD3 (3-ketosteroid-∆^1-dehydrogenase) (Pimelobacter simplex, UniProt P77815, W299A).
T1 construct: gene KR76_27115; full-length, N-terminal His6 tag (pET28a NdeI/EcoRI), E. coli BL21(DE3), Ni-NTA purified
As to the kind of experiment: PMS/DCPIP reduction at […] nm, Michaelis-Menten fit. The series is classed as biochemical. The note with it: 50 mM Tris-HCl pH 7.5, 30 °C, 1.5 mM PMS, 40 µM DCPIP, 2% methanol.

For series [2], the target named is T2, KsdD3 (3-ketosteroid-∆^1-dehydrogenase) (Pimelobacter simplex, UniProt P77815).
T2 construct: gene KR76_27115; full-length, N-terminal His6 tag (pET28a NdeI/EcoRI), E. coli BL21(DE3), Ni-NTA purified
As to the kind of experiment: PMS/DCPIP reduction at […] nm, Michaelis-Menten fit. The format is biochemical. The note with it: 50 mM Tris-HCl pH 7.5, 30 °C, 1.5 mM PMS, 40 µM DCPIP, 2% methanol.

Substrate in series [3]: C[C@]12CCC(=O)C=C1CC[C@@H]1[C@@H]2C(=O)C[C@@]2(C)[C@H]1CC[C@]2(O)C(=O)CO
As to the kind of experiment: purified protein. The note with it: 50 mM Tris-HCl pH 7.5, 30 °C, 1.5 mM PMS, 40 µM DCPIP, 2% methanol.

Substrate in series [4]: CC(=O)OCC(=O)[C@@]1(O)CC[C@H]2[C@@H]3CCC4=CC(=O)CC[C@]4(C)[C@H]3C(=O)C[C@@]21C
As to the kind of experiment: purified protein. The format is biochemical, Pimelobacter simplex. To be noted: 50 mM Tris-HCl pH 7.5, 30 °C, 1.5 mM PMS, 40 µM DCPIP, 2% methanol.

Substrate in series [5]: C[C@]12CC[C@H]3[C@@H](CCC4=CC(=O)CC[C@@]43C)[C@@H]1CC[C@@H]2O
The experiment in a line: purified protein. The series is classed as biochemical, Pimelobacter simplex. The note with it: pH 7.5; 30.0 °C.

Substrate in series [6]: CC(=O)[C@H]1CC[C@H]2[C@@H]3CCC4=CC(=O)CC[C@]4(C)[C@H]3CC[C@]12C
The experiment in a line: purified protein. The format is biochemical, Pimelobacter simplex. The note with it: 50 mM Tris-HCl pH 7.5, 30 °C, 1.5 mM PMS, 40 µM DCPIP, 2% methanol.

Substrate in series [7]: C[C@]12CCC(=O)C=C1CC[C@@H]1[C@@H]2CC[C@]2(C)C(=O)CC[C@@H]12
As to the kind of experiment: purified protein. The series is classed as biochemical, Pimelobacter simplex. To be noted: pH 7.5; 30.0 °C.

Substrate in series [8]: C[C@]12CCC(=O)C=C1CC[C@@H]1[C@@H]2CC[C@@]2(C)[C@H]1CC[C@]2(C)O
The experiment in a line: purified protein. The format is biochemical, Pimelobacter simplex. The note with it: pH 7.5; 30.0 °C.

Substrate in series [9]: CC(=O)[C@@]1(O)CC[C@H]2[C@@H]3CCC4=CC(=O)CC[C@]4(C)[C@H]3C(=O)C[C@@]21C
As to the kind of experiment: purified protein. The series is classed as biochemical, Pimelobacter simplex. The note with it: 50 mM Tris-HCl pH 7.5, 30 °C, 1.5 mM PMS, 40 µM DCPIP, 2% methanol.

Substrate in series [10]: CC(=O)[C@@]12O[C@@H]1C[C@H]1[C@@H]3CCC4=CC(=O)CC[C@]4(C)[C@H]3[C@H](O)C[C@@]12C
As to the kind of experiment: purified protein. The note with it: 50 mM Tris-HCl pH 7.5, 30 °C, 1.5 mM PMS, 40 µM DCPIP, 2% methanol. The series is classed as biochemical, Pimelobacter simplex.

Substrate in series [11]: C[C@]12CCC(=O)C=C1CC[C@@H]1[C@@H]2CC[C@]2(C)C(=O)CC[C@@H]12
As to the kind of experiment: purified protein. To be noted: 50 mM Tris-HCl pH 7.5, 30 °C, 1.5 mM PMS, 40 µM DCPIP, 2% methanol.

Results on 4 molecules are retold here after paper PMC6130075, “Engineering of 3-ketosteroid-∆^1-dehydrogenase based site-directed saturation mutagenesis for efficient biotransformation of steroidal substrates” (Microbial Cell Factories, 2018).

A word on the Km: it is the substrate concentration at which the rate is half of its maximum. In general, kcat refers to the maximal rate divided by the concentration of active sites. By kcat/Km is commonly meant the second-order rate constant that governs catalysis at low substrate concentration.

`C[C@]12CCC(=O)C=C1CC[C@H]1[C@@H]3CCC(=O)[C@@]3(C)CC[C@@]12O` [9α-OH-AD, 9α-hydroxy-4-androstene-3,17-dione]: the Km was 68.5 ± 7 µM in series [1] and 145 ± 4.4 µM in series [2].

B1: KsdD3 (3-ketosteroid-∆^1-dehydrogenase) (Pimelobacter simplex; W299A) (protein)
chain: MDWAEEYDVLVAGSGAGGMAGTYTAAREGLSVCLVEAGDKFGGTTAYSGGGGAWFPANPVLLRAGTDDTIEDALEYYRAVVGDRTPADLQETYVRGGAGLVAYLEEDDHFSFESYPWPDYFGDAPKARRDGQRHIIPTPLPVPSAPELREVVRGPLDNDRLGTPQPDDLFIGGRALVARFLTALATYPHATLVRETALAELVVEDGVVVGAIVETDGVRRAIRARRGVLLAAGGFEANDELRQKYGVPGVARDTMGPPTNVGAAHQAAIAVGADTDLMGEAWWSPGLTHPDGRSAFALAFTGGIFVDGAGRRFVNESAPYDRLGRAVIDHLTEGGVTPRYWMVYDHKEGSIPPVRATNVSMVDEEQYVAAGLWHTADTLPELAALIGVPADALVATVARFNELVADGYDADFGRGGEAYDRFFSGGEPPLVSIDEGPFHAAAFGISDLGTKGGLRTDTSARVLTADGTPIGGLYAAGNTMAAPSGTTYPGGGNPIGTSMLFSHLAVRHMGTEDAR
notes: full-length, N-terminal His6 tag (pET28a NdeI/EcoRI), E. coli BL21(DE3), Ni-NTA purified
In the case of B1, the Michaelis-Menten constant (Km) in the series “purified protein [3]” is on record as 42.85 ± 3.3 µM; in “purified protein [4]” it was 75.93 ± 3.8 µM; in “purified protein [5]”, 33.25 ± 4.2 µM; in “purified protein [6]” it was 40.37 ± 3.7 µM; in the series “purified protein [7]”, 34.89 ± 2.5 µM; in the series “purified protein [8]” it was 44.63 ± 2.8 µM. The Km worked out at 46.85 ± 0.9 µM in the series “purified protein [9]” and 149.15 ± 4.6 µM in “purified protein [10]”. In addition, the kcat in the series “purified protein [3]” is 78 s⁻¹; in the series “purified protein [4]”, 47.3 ± 1.5 s⁻¹; in the series “purified protein [6]” it was 87.1 ± 4.2 s⁻¹; in “purified protein [9]”, 62.1 ± 6.1 s⁻¹; in the series “purified protein [10]” it was 33.6 ± 2.1 s⁻¹. Moreover, the kcat/Km in “purified protein [3]” turned out to be 1.82e+06 M⁻¹ s⁻¹; in “purified protein [4]”, 620000 M⁻¹ s⁻¹; in “purified protein [5]” it was 3.7e+06 M⁻¹ s⁻¹; in “purified protein [6]”, 2.16e+06 M⁻¹ s⁻¹; in “purified protein [7]”, 3.28e+06 M⁻¹ s⁻¹; in the series “purified protein [8]”, 1.66e+06 M⁻¹ s⁻¹. Further, the kcat/Km in the series “purified protein [9]” stood at 1.32e+06 M⁻¹ s⁻¹; in “purified protein [10]”, 230000 M⁻¹ s⁻¹.

B2: KsdD3 (3-ketosteroid-∆^1-dehydrogenase) (Pimelobacter simplex; W299G) (protein)
chain: MDWAEEYDVLVAGSGAGGMAGTYTAAREGLSVCLVEAGDKFGGTTAYSGGGGAWFPANPVLLRAGTDDTIEDALEYYRAVVGDRTPADLQETYVRGGAGLVAYLEEDDHFSFESYPWPDYFGDAPKARRDGQRHIIPTPLPVPSAPELREVVRGPLDNDRLGTPQPDDLFIGGRALVARFLTALATYPHATLVRETALAELVVEDGVVVGAIVETDGVRRAIRARRGVLLAAGGFEANDELRQKYGVPGVARDTMGPPTNVGAAHQAAIAVGADTDLMGEAWWSPGLTHPDGRSAFALGFTGGIFVDGAGRRFVNESAPYDRLGRAVIDHLTEGGVTPRYWMVYDHKEGSIPPVRATNVSMVDEEQYVAAGLWHTADTLPELAALIGVPADALVATVARFNELVADGYDADFGRGGEAYDRFFSGGEPPLVSIDEGPFHAAAFGISDLGTKGGLRTDTSARVLTADGTPIGGLYAAGNTMAAPSGTTYPGGGNPIGTSMLFSHLAVRHMGTEDAR
As for B2, in “purified protein [11]”, the Michaelis-Menten constant (Km) turned out to be 37.01 ± 1.8 µM, the kcat was determined as 101.2 ± 0.9 s⁻¹ and the specificity constant (kcat/Km) was found to be 2.74e+06 M⁻¹ s⁻¹.

B3: KsdD3 (3-ketosteroid-∆^1-dehydrogenase) (Pimelobacter simplex) (protein)
chain: MDWAEEYDVLVAGSGAGGMAGTYTAAREGLSVCLVEAGDKFGGTTAYSGGGGAWFPANPVLLRAGTDDTIEDALEYYRAVVGDRTPADLQETYVRGGAGLVAYLEEDDHFSFESYPWPDYFGDAPKARRDGQRHIIPTPLPVPSAPELREVVRGPLDNDRLGTPQPDDLFIGGRALVARFLTALATYPHATLVRETALAELVVEDGVVVGAIVETDGVRRAIRARRGVLLAAGGFEANDELRQKYGVPGVARDTMGPPTNVGAAHQAAIAVGADTDLMGEAWWSPGLTHPDGRSAFALWFTGGIFVDGAGRRFVNESAPYDRLGRAVIDHLTEGGVTPRYWMVYDHKEGSIPPVRATNVSMVDEEQYVAAGLWHTADTLPELAALIGVPADALVATVARFNELVADGYDADFGRGGEAYDRFFSGGEPPLVSIDEGPFHAAAFGISDLGTKGGLRTDTSARVLTADGTPIGGLYAAGNTMAAPSGTTYPGGGNPIGTSMLFSHLAVRHMGTEDAR
notes: as for B1
Regarding B3, the Michaelis constant (Km) in “purified protein [3]” was found to be 50.04 ± 2.7 µM; in the series “purified protein [4]”, 95.08 ± 4.7 µM; in the series “purified protein [5]”, 42.05 ± 4.3 µM; in the series “purified protein [6]”, 62.31 ± 4.8 µM; in the series “purified protein [7]” it was 47.43 ± 1.9 µM; in the series “purified protein [8]” it was 55.35 ± 3.1 µM. In addition, the results for the Michaelis constant (Km) in the series “purified protein [9]” and in “purified protein [10]” were 57.12 ± 2.8 µM and 228.26 ± 7.1 µM, respectively. Also, the kcat in “purified protein [3]” was 59.7 s⁻¹; in “purified protein [4]”, 45.3 ± 3.5 s⁻¹; in the series “purified protein [6]”, 53.5 ± 4.1 s⁻¹; in the series “purified protein [9]”, 55.2 ± 3.7 s⁻¹; in “purified protein [10]”, 19.2 ± 4.5 s⁻¹. In addition, the kcat/Km in the series “purified protein [3]” stood at 1.19e+06 M⁻¹ s⁻¹; in “purified protein [4]” it was 480000 M⁻¹ s⁻¹; in the series “purified protein [5]” it was 1.89e+06 M⁻¹ s⁻¹; in the series “purified protein [6]”, 860000 M⁻¹ s⁻¹; in “purified protein [7]” it was 1.29e+06 M⁻¹ s⁻¹; in “purified protein [8]” it was 1.03e+06 M⁻¹ s⁻¹. Further, the kcat/Km in the series “purified protein [9]” came to 970000 M⁻¹ s⁻¹; in “purified protein [10]” it was 80000 M⁻¹ s⁻¹.
